Test results published in the supplement of paper PMC10567573.

B1: PKD2L1 (parent)
chain: VFIFYYVVEEILELHIHRLRYLSS

Variants of: B1
Experiment: protein stability index of a GFP-peptide fusion (GPS, HEK-293T) (PSI 1-6); higher = more stable
Settings: c terminus: a fixed tail appended
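Note: lentivirally expressed fusions sorted by FACS into six bins by GFP to DsRed ratio, PSI derived from sequencing read proportions per bin multiplied by bin number.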

Variant	protein stability index
VFIFYYVVEEIQELHIHRLRYLSS [L12Q]	3.48
VFIFYYVVEEILELTIHRLRYLSS [H15T]	2.71
VFIFYYVVEEILELPIHRLRYLSS [H15P]	3.51
VFIFYYVVEEILELHISRLRYLSS [H17S]	3.69
VFIFYYVVEEILMLHIHRLRYLSS [E13M]	2.72
VFIFYYVVEEILEHHIHRLRYLSS [L14H]	2.69
VFIFYYVVEEILELHIHRLRPLSS [Y21P]	3.02
VFIFYYVVEEILELHIPRLRYLSS [H17P]	2.54
VFIFYYVTEEILELHIHRLRYLSS [V8T]	1.93
VFIFYYVQEEILELHIHRLRYLSS [V8Q]	1.9
VFIFYYVVEEILELHIHRCRYLSS [L19C]	2.7
VFIFYYVVEEILELHIHRLLYLSS [R20L]	2.38
VFIFYYVVEEIHELHIHRLRYLSS [L12H]	3.78
VFIFYYVVCEILELHIHRLRYLSS [E9C]	1.88
VFIFYYVVEEILEPHIHRLRYLSS [L14P]	3.5
VFIFYYVVEEILELHIHRLRYLSF [S24F]	2.37
VFIFYYVVEEMLELHIHRLRYLSS [I11M]	2.46
VFIFYYVVEEIWELHIHRLRYLSS [L12W]	2.15
VFIFDYVVEEILELHIHRLRYLSS [Y5D]	3.1
VFIFYYVVEEILPLHIHRLRYLSS [E13P]	2.44
VAIFYYVVEEILELHIHRLRYLSS [F2A]	1.52
VFIFYSVVEEILELHIHRLRYLSS [Y6S]	4.37
VFIFYRVVEEILELHIHRLRYLSS [Y6R]	2.78
VFIFYYFVEEILELHIHRLRYLSS [V7F]	1.93

Variant	protein stability index
VFIFYYVVEEILELHAHRLRYLSS [I16A]	2.11
VFIFYYVVEESLELHIHRLRYLSS [I11S]	3.09
VFIFYYVVEEILELHIHRLRLLSS [Y21L]	2.06
VFIFYYVVEEILEWHIHRLRYLSS [L14W]	1.99
VFIFYYVVEEILELYIHRLRYLSS [H15Y]	3.19
VFIFKYVVEEILELHIHRLRYLSS [Y5K]	3.67
VFIFYYVVEEILELHIHLLRYLSS [R18L]	3.78
VFIGYYVVEEILELHIHRLRYLSS [F4G]	3.56
YFIFYYVVEEILELHIHRLRYLSS [V1Y]	2.76
VFIFYYVVEEILELHIHRWRYLSS [L19W]	3.75
VFIFYYVVEEILELHIHRLRYLIS [S23I]	4
VFEFYYVVEEILELHIHRLRYLSS [I3E]	4
VFIFFYVVEEILELHIHRLRYLSS [Y5F]	2.11
VFIFYYVVEEILELHIFRLRYLSS [H17F]	2.87
VFIFYYVVEEILEEHIHRLRYLSS [L14E]	2.14
VFIFYYVVEEILELHIHRLRYLNS [S23N]	1.82
VFIFYYVVEETLELHIHRLRYLSS [I11T]	2.64
VFIFYYVVEEILELHIMRLRYLSS [H17M]	3.93
VFIFYYVVEEILELHIHKLRYLSS [R18K]	2.64
VFIFYYVVEEIMELHIHRLRYLSS [L12M]	2.73
VFIFYYVVEEILELHIHRLRRLSS [Y21R]	1.55
VFIFYYVVEEILELHMHRLRYLSS [I16M]	2.9
VFIFYYVVEEIGELHIHRLRYLSS [L12G]	1.89
VFIFYYVVEEKLELHIHRLRYLSS [I11K]	2.51

Variant	protein stability index
VFIFYYVVEEILELHIHRLWYLSS [R20W]	2.38
VFIFYYVVEEIRELHIHRLRYLSS [L12R]	2.27
VFIFYYVVEEILEDHIHRLRYLSS [L14D]	1.93
VFIFYYVVEHILELHIHRLRYLSS [E10H]	2.68
VFIFYIVVEEILELHIHRLRYLSS [Y6I]	2.85
VFIFYYVVEEPLELHIHRLRYLSS [I11P]	1.89
VFIFYYVVEEIFELHIHRLRYLSS [L12F]	3.21
VFIFYYVVEEILELHIARLRYLSS [H17A]	2.18
VFIFYYVVEEILDLHIHRLRYLSS [E13D]	2.04
VFIFYYVVEEILELHIHRLRFLSS [Y21F]	3.66
VFIFYYVVEEILELHNHRLRYLSS [I16N]	3.35
VSIFYYVVEEILELHIHRLRYLSS [F2S]	2.65
VFIFYYVVEEILELHIHRLRELSS [Y21E]	2.27
VFIFYYVVEEILELHIHRLRYLSE [S24E]	2.21
VFIFYYVVEEILELHIHRTRYLSS [L19T]	4.02
VFIFYYVVEEIAELHIHRLRYLSS [L12A]	2.33
VFIFYYVVEEILELHIHRDRYLSS [L19D]	2.8
VFIFTYVVEEILELHIHRLRYLSS [Y5T]	2.27
VFFFYYVVEEILELHIHRLRYLSS [I3F]	2.89
VFIFYYVVEEILELHIHRLRYLQS [S23Q]	3.46
VFHFYYVVEEILELHIHRLRYLSS [I3H]	1.62
VFIFYYVVEEILEIHIHRLRYLSS [L14I]	2.22
VFIFYYVVEEILELHIHRLHYLSS [R20H]	2.34
VFIFYMVVEEILELHIHRLRYLSS [Y6M]	2.17

Variant	protein stability index
VFIFYYAVEEILELHIHRLRYLSS [V7A]	4.67
VFIFYYVVEEILELHIHRLRYFSS [L22F]	3.34
VFIFYYVHEEILELHIHRLRYLSS [V8H]	2.51
VFIFYNVVEEILELHIHRLRYLSS [Y6N]	2.01
VFIFYYVVEEILELHIHRLRYLSL [S24L]	2.58
VFIFYYVVEEDLELHIHRLRYLSS [I11D]	2.57
VFIFYYVMEEILELHIHRLRYLSS [V8M]	3.67
VFIFYYVVEEILELHIHRLRYLCS [S23C]	1.99
PFIFYYVVEEILELHIHRLRYLSS [V1P]	2.44
VFIFYYVVEEILELHIHRLRYLVS [S23V]	3.04
VFIFYYVVEEILELHIHRLRYISS [L22I]	3.59
VFIFYYVVEEILFLHIHRLRYLSS [E13F]	3.37
VFIFYYVVEEILELHIHRLRYLTS [S23T]	3.81
VFIFYYVVKEILELHIHRLRYLSS [E9K]	3.5
VFIFYYVVEEILELCIHRLRYLSS [H15C]	2.86
VFIFYDVVEEILELHIHRLRYLSS [Y6D]	2.42
VFSFYYVVEEILELHIHRLRYLSS [I3S]	2.73
VFIFYYVVQEILELHIHRLRYLSS [E9Q]	2.61
VFIFYYVVEEILELVIHRLRYLSS [H15V]	2.21
VFIFWYVVEEILELHIHRLRYLSS [Y5W]	2.24
VFIFGYVVEEILELHIHRLRYLSS [Y5G]	1.31
VFIFPYVVEEILELHIHRLRYLSS [Y5P]	1.66
